Assay: yeast display, Sf9 membrane polyspecificity reagent, FACS + sequencing; frameworks hold sequencing errors
Summary of the method: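 Using colony PCR, genes from sorted yeast display clones were amplified, then sequenced on MiSeq at 2 × 250 and filtered by CDR length. The clones had been stained with 10% biotinylated, detergent-solubilized Sf9 membrane reagent for 1 hour at 4 °C and sorted by FACS into low and high (top ~1%) gates on anti-HA and streptavidin fluorescence. Polyreactivity labels come from the gate of origin.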

Sequence	polyreactivity (PSR sort gate)
QVQLVESGGGVVQAGGSLRLSCAASGLIFYLYAMGWYRQAPGKERELVAGITSGGGSTYYADSVKGRFTISRDNAQNTVYLQMNSLKPEDTAVDDCAARLVLYITVVYEDDYWGQGTQGTVSS	low polyreactivity
QVQLVESGGGVVQAGGSLRLSCAASGLIIPFYARGWYRQAPGKERELVAAISWSAGSTYYADSVKGRFTMSRDNAKTTVYLQMNSLKPEDTAVYYCATDRNPADFYWGQGTQVTVSS	low polyreactivity
QVQLVESGGGVVQAGGSLRLSCAASGRIFIYYTMGWYRQAPGKEREFVAAITYSGGSTRYADSVKGRFTISRDNAKNTVYLQMNSLKPEDTAFYYCAAKFSVRRGFDYWGQGTQVTVSS	low polyreactivity
QVQLVESGGGVVQAGGSLRLSCAASGRIFRYNAMGWYRQAPGKEREVVAGISFSGGSTYYADSVKGRFTISRDNAKNTVYLQMNSLKPEDTAVYYCNAYGRYSYPTFDYWGQGTQVTVSS	high polyreactivity
QVQLVESGGGVVQAGGSLRLSCAASGRIFVGYDMGWYRQAPGKEWELVAAINRSGSSTYYADSVKGRFTISRDNAKNTVYLQMNSLKPEDTAVYYCNDRSGNRYGPRYDYWGQGTQVTVSS	high polyreactivity
QVQLVESGGGVVQAGGSLRLSCAASGRTFNYYAMGWYRQAPGKERELVAAISRTATTYYADSVKGRFTISRDNAKNTVYLQMNSLKPEDTAVYYCAARSYSSSFSYRHYYWGQGTQVTVSS	high polyreactivity
QVQLVESGGGVVQAGGSLRLSCAASGRTFQFNAMGWYRQAPGKERELVATIDDPSGGTYYADSVKGRFTISRDNAKNTVYLQMNSLKPEDTAVYYCAADRWDSRYETYRYDYWGQGTQVTVSS	low polyreactivity
QVQLVESGGGVVQAGGSLRLSCAASGRTSGSYAMGWYRQAPGNERELVAVITTSDGSTYYADSVKGRFTISRDNAKNTVYLQMNSLKPEDTAVYYCNVDYPNLWYDSYYYWGQGTQVTVSS	low polyreactivity
QVQLVESGGGVVQAGGSLRLSCAASGSFFYVYAMGWYRQAPGKERELVAAITATYYADSVKGRFTISRDNAKNTVYLQMNSLKPEDTAVYYCAAAPWTYWEDYDFWGQGTQVTVSS	low polyreactivity
QVQLVESGGGVVQAGGSLRLSCAASGSIFKSYAMGWYRQAPGKERELVAAITWSGGSTHYADSVKGRFTISRDNAKNTVYLQMNSLKPEDTAVYYCAADGYTGQAELDSWGQGTQVTVSS	low polyreactivity
QVQLVESGGGVVQAGGSLRLSCAASGSIFLRYAMGWYREAPGKERELVAAITSSGGSTYYADSVKGRFTISRDNAKNTVYLQMNSLKPQDNAVYYCNARAYTRYSRLDYWGQGTQVSVSS	high polyreactivity
QVQLVESGGGVVQAGGSLRLSCAASGSIFPINAMGWYRQAPGKERELVAAITSGGSTNYADSVKGRFTISRDNAKNTVYLQMNSLKPEDTAVYYCAADWRYWRWAFDYWGQGTQVTVSS	high polyreactivity
QVQLVESGGGVVQAGGSLRLSCAASGSIFYSYAMGWYRQAPGKERELVAAISSSGTSTYYADSVKGRFTISRDNAKNTVYLQMNSLKPEDTAVYYCAARFYGTSYYRYNYWGQGTQVTVSS	high polyreactivity
QVQLVESGGGVVQAGGSLRLSCAASGSIFYYYAMGWYRQAPGKERELVASITHTGGSTNYADSVKGRFTISRDNAKNTVYLQKNSLKPEDTAVYYCAAEYWNDNYSDPLYDYWGQGTQVTVSS	low polyreactivity
QVQLVESGGGVVQAGGSLRLSCAASGSTFARKAMGWYRPAPGKERELVAAITYSGGRTYYADSVKGRVTISRDNAKNTVYLQMNRLKPVDTAVYYCAVKSFSGHGDYWGQGTQVTLSS	low polyreactivity
QVQLVESGGGVVQAGGSLRLSCAASGTFYLYAMGWYRQAPGKERELVAAISGSGSTNYADSVKGRFTISRDNAKNTVYLQMNSLKPEDTAVYYCAAYQRYDSVTGARYEYDYWGQGTQVTVSS	low polyreactivity
QVQLVESGGGVVQAGGSLRLSCAAYGRTFYVYTLGWYRPAPGKERELVAANTSGGSTNYADCVMGRFTISRDYAKNTVYLQMNSLKPEDTAVYYCAAKRYNRLRSYRYSDREDYWGQGTQVTVSS	high polyreactivity
QVQLVESGGGVVQAGGSLRLSCAGSGFIFSYYTMGWYRQAPGKERELVAAITSGGSTNYADSVKGRFTISRDNAKNTVYLQMNSLKPEDTAVYYCNALLWAWTLWGSGYDYWGQGTQVTVSS	low polyreactivity
QVQLVESGGGVVQAGGSLRLSCSASGSTFLGYVMGWYRQAPGKEREFVAVISRSGGDTYYADSVKGRFTISRDNAKNTVYLQMNSLKPEDTAVFYCNTRVRASSVDYDEGDYWGQGTQVTVSS	low polyreactivity
QVQLVESGGGVVQAGRSLRLSCAASGRLFYEYAMGWYRQAPGKEREFVAAISYSGSRTYYADSVKGRFTISRDNAKYTVYLQLNCLIPEDTAVYYCAAVVAFGTGTFYYWGQGRQVTVSS	high polyreactivity
QVQLVESGGGVVQSRGSLRLTCAASGRIFLQYAMGWYRQAPWKERELVAAIEWSGGRTYYADSVKGRFTISRDNAKNTVYLQMNSLTPEDTAVYYCAARRISGSAVRGSRGYWGQGTQVTVSS	high polyreactivity
QVQLVESGGLLVQAGGILRLSCAASGITFQYYAMGWSRQAPGKERELVAANTSSGVSTYYADSVKGRFTISRDNAKNTVYFQMNSLKPEDTAVYYCNTVVRGWSSSADDYWVQGTQVTVSS	low polyreactivity

Sequence	polyreactivity (PSR sort gate)
QVQLVESGGLLVQAGGSIRITCAASGSTLWFNAMGWYRQAPGKERELVAAINWSGGSTYYADSVKGRFSISRDNAKITVYVQMTSLKPEDTAVYYCAAFYQYVHYVWYDYWGQGSQVTVSS	low polyreactivity
QVQLVESGGLLVQAGGSLRLSCAASGFIFNQYAMGWDRQAPAKVREFVAGISWSGGATYYADSVKGRFTISRDNAKNTVYLQMNSLKPEETAVYYCAADRTYSFYYTQGYEYWGQGTHVTVSS	low polyreactivity
QVQLVESGGPLVQAGGSLRLSFAACGFTLWSYSLGWYRQAPGKESELVAAINSRGGRTSYADSVKGRFTISRDNAKNTVYLQINRLKPEDTAVYYCATDPISRARLYGQRDYWGQGTQVTVSS	high polyreactivity
QVQLVESGGRIFQAGGSLRLSCAASGLIFPYYVMGWYRQAPGKERELVADITWSGGRTYYADSVKGRFTISRDNAKNTVYLQMNSLKPEDTSVYYCKAETGGVYDNYYYVGEYYFWGQGTQVTVSS	low polyreactivity
QVQLVESGGRIVQAGGSLRLSCDASGSTIFGNGMGWYRQAPGKERELVAAISGGGSTHYADSVKGRFTISRDNAKNTVYLQMNSVKPEDTAVYYCSPSRDTDGRGPIQRDFWGQGTQVTVSS	low polyreactivity
QVQLVESGGRLDQAGGSLRLSCAASGRIFSRNTMGWYRQAPGKERELVATITSAGSTSFADSVKGRFTISRDNAKNTVYLQMNSLKPENTAVYYCAKRGAYATGRRYDPYGYWGQGTQVTVSS	high polyreactivity
QVQLVESGGRLDQARGSLRLSCAASGYNFQPYAMGWYRLAPGKERDLVAAISWRGGSTYYADSVKGRFTISRDNAKNTVYLQMTSLKPEDTAVYYCAKDYYYGLEHYGYWGQGTQVTVSS	low polyreactivity
QVQLVESGGRLLQAGGSLRLSCAASGRIIGLYAMGWYRPAPGKEWEFVAAINWDGGSTFYADSVKGRFTISRDNAKNSVYLQMNSLQPEDTAVYYCAADVYSYVSNCTYVSVFTYDYWGHGTQVTVSS	low polyreactivity
QVQLVESGGRLVPAGGSLRLTCAASGIISVYYVMGWYRPAPGKERELVAAINRSGGNTYYADSVKGRFTISRDNAKNTVYLQMNSLKPEDTAVYYCKASLYFYRYGHDDESDYWGQGTQVTVSS	high polyreactivity
QVQLVESGGRLVQAGASLRLSCAASGRILYWNTMGWYRQAPGKERELVASITQNVGSTYYADSVKGRFTISRDNAKNTVYLQMISMIPEDTAVYYCAAKRLSWHRYGYWGQGTQVTVSS	low polyreactivity
QVQLVESGGRLVQAGASLRLSCAASGSTFSTNAMGWYRQAPGKEREFVPAISRSGGRTYYADSVKGRFTISRDNAKNTVYLQMNSLKRDDTAVYYCAAGITHEGRDGDYWGQGTQVTVSS	high polyreactivity
QVQLVESGGRLVQAGCSLRLSCAASGFTFYQNAMGWYRQAPGKVRELVAAISVSGDSTYYADSVKGRLTISRDNAKNTVYLQMNSLKPEDTAVYYCTEYFYYLSLYYYYWFNYDYWGHGTQVTVSS	low polyreactivity
QVQLVESGGRLVQAGGRLPLSCAASGSIFTGNAMGWYRQAPGKERELVAAITQRGGRTYYADSVKGRFTISRDNSKNTVYLQMNSLKPEDTAVYYCAADPPGYVYGKRYYWGQGTQVTVSS	high polyreactivity
QVQLVESGGRLVQAGGRLRLSCAASGRTILLYAMGRYRQAPGKESELVPAIRSSTVSTYYADSVKGRFTISRDNAKNTVYLQMYSLKPEDTAVYYCAASRPKYGPSGVRYNYWGQGTQVTVSS	high polyreactivity
QVQLVESGGRLVQAGGRLRLSCAASGSIFLYNARGWYRQAPGKERELVAAINYSGVSTYYADSVKGRFTISRDNAKNTVYLQMNSLKPEDTAVYYCARRWNAFGSKGGYWGQGTQVTVSS	high polyreactivity
QVQLVESGGRLVQAGGRLRLSCAASGSISASYAMGWYRQAPGKERELVAAITSGGSTYYADSVKGRFTISRDNAKYTVYLQMNSLKPEDTAVYYCAKRPKRTYYPHIGYDYWGLGTQVTVSS	low polyreactivity
QVQLVESGGRLVQAGGSIRLRCAASGNTFVYNDMGWYRQAPGKERELVADIRYSGSTYYADSVKGRFTISRDNATNTVYLEMNSLKPEDTAVYYCAKAYYVLSWMGYWGQGTQVTVSS	low polyreactivity
QVQLVESGGRLVQAGGSIRLSCAASGRIFGAYAMGWYRQAPGKERELVAAITQSGGSTFYADSVKGRFTISRDNAKNTVYLQMNSLKPEVTAVYYWGQGTQVTVSS	low polyreactivity
QVQLVESGGRLVQAGGSLLLSSAASGRTFGIYAMGWSRQSPGKERELCAAITWSGDSTYYADSVKGRFTISRDNAKNTVYIQMNSLKPEDTAVYYCAADYVGLTSVRYDYWGQGTQVTVSS	low polyreactivity
QVQLVESGGRLVQAGGSLRFSCAASGGIFESYAMGGYRQAPGQERELVASISSGGSTYYADSVKGRFTISRDNAKNTVYLQMNSLKPEDTAVYYCNTDNGSHGMDYWGQGTQVTVSS	low polyreactivity
QVQLVESGGRLVQAGGSLRLICAASGFTFGAYAMGWYRQAPGKERELVATIPYSGDSTYYADSVKGRFTISRDNAKNTVYLQMNSLKPEDTSVYYCAAYSTEGCGSPDWFESFDYWGQGTLVTVSS	low polyreactivity
